FireProtDB (doi:10.1002/prot.340090203)

Conditions: Escherichia coli (strain K12), reversible: yes, whole UniProt chain shown; for unfolding free energy: pH 7, 25 °C, GdnHCl, CD, Potassium phosphate 10 mM
[1] = pH 9, Thermal, DSC, Sodium tetraborate 1 mM

B1: Tryptophan synthase alpha chain wild type, P0A877 (protein)
chain: MERYESLFAQLKERKEGAFVPFVTLGDPGIEQSLKIIDTLIEAGADALELGIPFSDPLADGPTIQNATLRAFAAGVTPAQCFEMLALIRQKHPTIPIGLLMYANLVFNKGIDEFYAQCEKVGVDSVLVADVPVEESAPFRQAALRHNVAPIFICPPNADDDLLRQIASYGRGYTYLLSRAGVTGAENRAALPLNHLVAKLKEYNAAPPLQGFGISAPDQVKAAIDAGAAGAISGSAIVKIIEQHINEPEKMLAALKVFVQPMKAATRS
unfolding free energy: 8.8 kcal/mol
unfolding free energy (transition: 3): 4.6 kcal/mol
Tm [1]: 54.1 °C
heat capacity change of unfolding [1]: 4.6 kcal/mol/K
unfolding enthalpy (calorimetric) [1]: 120 kcal/mol
